This note sets out measurements from paper PMC2913408 (Biochemistry, 2010).

Substrate in data set [1]: O=C(O)/C=C/C=C(\O)C(=O)O
Kind of data set: purified protein. The format is biochemical, Chloroflexus aurantiacus. The note with it: 10 mM potassium phosphate, pH 7.3, 24 °C.

Substrate in data set [2]: O=C(O)/C(O)=C/c1ccccc1
Kind of data set: purified protein. The note with it: 10 mM potassium phosphate, pH 7.3, 24 °C.

B1: hh4-OT (heterohexamer 4-oxalocrotonate tautomerase) (Chloroflexus aurantiacus J-10-fl) (protein)
chain 1: MLLLRITMLEGRSTEQKAELARALSAAAAAAFDVPLAEVRLIIQEVPPTHWTVGGISMAELRQQASTSTQGQ
chain 2: PMLEVFYSGDRPPDRTRKQAFAAEASAIFQRVIGTPPGRLQLIIQIVSPENTLAVIDLDRPDSDTTAEPDQQ
For the protein B1, in the data set “purified protein [1]”, the Km was determined as 70 ± 8 µM, the kcat is 3000 ± 100 s⁻¹ and the specificity constant (kcat/Km) stood at 4.3e+07 M⁻¹ s⁻¹. Further, in the data set “purified protein [2]”, the Michaelis constant (Km) stood at 121 ± 20 µM, the kcat was found to be 13 s⁻¹ and the catalytic efficiency (kcat/Km) amounted to 110000 M⁻¹ s⁻¹.
